According to patent US20230365681A1 (CELGENE, published 2023):
Substitutions are numbered along the chain they refer to.

Assays:
[1] = biological target: FcγR3A (V176) recombinant protein (human, UniProt P08637 17-208); assay: recombinant protein, compared with control anti-RSV IgG1 antibody (p value 0.0049)
[2] = biological target: T1, FcγR2A (R131) recombinant protein (human, UniProt P12318 34-217); assay: recombinant protein, compared with control anti-RSV IgG1 antibody (p value 0.00019)
T1 sequence (looked up): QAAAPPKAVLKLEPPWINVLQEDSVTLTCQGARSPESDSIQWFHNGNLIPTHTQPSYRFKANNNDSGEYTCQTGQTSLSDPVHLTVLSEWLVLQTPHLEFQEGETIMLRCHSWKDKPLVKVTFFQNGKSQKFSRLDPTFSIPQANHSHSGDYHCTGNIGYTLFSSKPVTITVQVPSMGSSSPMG

[3] = biological target: T2, human CD47 extracellular domain (human, UniProt Q08722 19-139); assay: SPR, human CD47 ECD
T2 construct: extracellular domain; also called human CD47 ECD; Hu CD47
T2 sequence (Q08722 19-139 limits assumed): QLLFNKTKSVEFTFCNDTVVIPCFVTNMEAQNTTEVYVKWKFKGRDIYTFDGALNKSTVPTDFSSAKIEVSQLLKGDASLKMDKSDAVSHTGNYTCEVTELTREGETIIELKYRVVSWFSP

human CD20 = biological target: T3, human CD20 (human, UniProt P11836 1-297, limits assumed); assay: sandwich SPR
T3 sequence (looked up): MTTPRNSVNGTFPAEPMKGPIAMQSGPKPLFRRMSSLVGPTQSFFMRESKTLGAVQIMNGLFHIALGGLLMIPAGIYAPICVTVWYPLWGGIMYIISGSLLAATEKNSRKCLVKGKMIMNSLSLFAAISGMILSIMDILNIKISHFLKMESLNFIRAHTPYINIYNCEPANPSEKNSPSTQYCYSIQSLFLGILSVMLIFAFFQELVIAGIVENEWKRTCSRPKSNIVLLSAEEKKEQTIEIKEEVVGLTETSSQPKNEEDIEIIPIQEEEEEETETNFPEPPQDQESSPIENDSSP

[4] = biological target: T4, FcγR1 on engineered HEK293 cells (UniProt P12314 16-374); assay: TR-FRET on FcγR-engineered HEK293 cells
T4 construct: whole, on cells; also called FcγR1 cell line
T4 sequence (P12314 16-374, change not shown): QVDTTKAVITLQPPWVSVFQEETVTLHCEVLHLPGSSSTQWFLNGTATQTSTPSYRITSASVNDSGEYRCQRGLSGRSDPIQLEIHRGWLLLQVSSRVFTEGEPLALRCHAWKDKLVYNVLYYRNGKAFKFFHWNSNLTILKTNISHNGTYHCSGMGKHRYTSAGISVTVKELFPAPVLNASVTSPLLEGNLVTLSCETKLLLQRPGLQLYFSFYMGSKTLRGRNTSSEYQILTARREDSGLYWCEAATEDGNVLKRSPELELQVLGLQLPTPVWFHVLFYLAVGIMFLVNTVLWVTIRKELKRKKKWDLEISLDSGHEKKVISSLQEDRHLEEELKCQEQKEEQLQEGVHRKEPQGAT

[5] = biological target: T5, FcγR2B on engineered HEK293 cells (UniProt P31994 43-310); assay: TR-FRET on FcγR-engineered HEK293 cells
T5 construct: whole, on cells; also called FcγR2B cell line
T5 sequence (looked up): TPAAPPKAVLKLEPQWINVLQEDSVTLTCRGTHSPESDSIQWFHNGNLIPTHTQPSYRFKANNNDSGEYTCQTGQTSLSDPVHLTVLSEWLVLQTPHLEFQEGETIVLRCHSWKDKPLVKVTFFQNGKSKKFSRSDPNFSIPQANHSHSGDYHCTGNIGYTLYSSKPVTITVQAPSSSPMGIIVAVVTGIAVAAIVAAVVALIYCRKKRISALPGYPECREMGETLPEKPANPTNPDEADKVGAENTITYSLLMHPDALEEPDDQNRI

[6] = biological target: T6, FcγR2A (H131) recombinant protein (human, UniProt P12318 34-217); assay: recombinant protein, compared with control anti-RSV IgG1 antibody (p value 0.0038)
T6 sequence (looked up): T1 sequence (looked up) with R134H

[7] = biological target: T2, human CD47 extracellular domain; assay: SPR, extracellular domain of human CD47
[8] = biological target: recombinant human fragment crystallizable gamma receptor (FcγR) family members tested; assay: recombinant human FcγR proteins; method not stated
mouse CD47 = biological target: T7, mouse CD47 (mouse, UniProt Q61735 19-140, limits assumed); assay: SPR
T7 sequence (looked up): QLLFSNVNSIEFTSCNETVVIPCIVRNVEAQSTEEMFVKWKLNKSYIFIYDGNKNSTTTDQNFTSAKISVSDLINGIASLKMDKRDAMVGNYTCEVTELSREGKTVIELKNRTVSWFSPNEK

[9] = biological target: T8, cynomolgus CD47 extracellular domain (cynomolgus monkey, UniProt A0A2K5X523 19-141); assay: SPR, cynomolgus CD47
T8 construct: also called cynomolgus CD47 ECD
T8 sequence (A0A2K5X523 entry or part of it limits assumed): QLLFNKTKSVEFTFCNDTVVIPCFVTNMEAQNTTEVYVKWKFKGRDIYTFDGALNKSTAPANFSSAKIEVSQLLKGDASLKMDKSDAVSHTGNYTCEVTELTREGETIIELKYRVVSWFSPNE

[10] = biological target: FcγR3A (F176) recombinant protein (human, UniProt P08637 17-208); assay: recombinant protein, compared with control anti-RSV IgG1 antibody (p value 0.0045)
Sequence of FcγR3A (F176) recombinant protein (P08637 17-208): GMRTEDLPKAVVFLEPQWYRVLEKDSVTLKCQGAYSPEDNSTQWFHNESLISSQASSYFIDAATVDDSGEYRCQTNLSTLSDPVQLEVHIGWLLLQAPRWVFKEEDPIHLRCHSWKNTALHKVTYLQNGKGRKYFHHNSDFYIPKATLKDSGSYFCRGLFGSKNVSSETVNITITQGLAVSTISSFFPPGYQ

human CD47 on cells [11] = biological target: T9, human CD47 on cells (human, UniProt Q08722 19-323); assay: blocking of human SIRPα binding to OCI-Ly3 cells, SIRPα at saturating concentration, secondary antibody detection; competitor SIRPα (repeated in paragraph 145 as average EC50); OCI-Ly3 cells (CD20+/CD47+); blocking of SIRPα binding
T9 construct: whole, on cells; also called cell surface CD47; CD47 on Raji, OCI-Ly3, Fadu cells, human RBCs, platelets and blood cells
T9 sequence (Q08722 19-323): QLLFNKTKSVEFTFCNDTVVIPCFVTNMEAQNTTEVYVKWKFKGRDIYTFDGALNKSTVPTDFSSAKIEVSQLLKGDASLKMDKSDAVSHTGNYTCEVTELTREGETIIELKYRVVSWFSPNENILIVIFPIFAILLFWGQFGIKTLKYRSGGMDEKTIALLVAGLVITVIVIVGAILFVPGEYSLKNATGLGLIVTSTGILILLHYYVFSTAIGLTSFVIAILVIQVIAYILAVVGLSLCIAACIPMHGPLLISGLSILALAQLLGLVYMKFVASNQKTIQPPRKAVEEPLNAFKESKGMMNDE

human CD47 on cells [12] = biological target: T9, human CD47 on cells; assay: blocking of human SIRPα binding to Raji cells, SIRPα at saturating concentration, secondary antibody detection; competitor SIRPα (repeated in paragraph 145 as average EC50); Raji cells (CD20+/CD47+); blocking of SIRPα binding
[13] = biological target: T2, human CD47 extracellular domain; assay: SPR, human CD47 ECD; Example 4 SPR; earlier determination than the 2.32 µM of paragraph 95
human CD20 on cells = biological target: T10, human CD20 on cells (human, UniProt P11836 1-297); assay: binding to Raji cells (CD20+/CD47+), y axis MFI (the legend paragraph 44 says SPR)
T10 construct: whole, on cells; also called CD20 on Raji cells and human B cells
T10 sequence (looked up): T3 sequence (looked up)

human CD47 on cells [14] = biological target: T9, human CD47 on cells; assay: cell-based or functional assay
[15] = biological target: T11, cynomolgus CD20 on B cells (cynomolgus monkey, UniProt M4ZHZ6 1-297); assay: binding to cynomolgus macaque B cells
T11 construct: whole, on cells; also called cynomolgus macaque B cells
T11 sequence: T3 sequence (looked up) with S25P, F31L, T51A, A157V, K217R, N226S, I227V, T239V

[16] = biological target: T8, cynomolgus CD47 extracellular domain; assay: SPR, cynomolgus CD47 ECD

Sequence of FcγR3A (V176) recombinant protein (P08637 17-208 F176V): as the sequence (P08637 17-208) above, with F160V counted along it

B1: TPP-1360 (bispecific antibody, human IgG1, kappa)
light 1: NIQMTQSPSSLSASVGDRVTITCRASQDIHRYLSWFQQKPGKVPKHLIYRESRFVDGVPSRFSGSGSGTEFTLTISSLQPEDFATYYCLQYDEFPYTFGGGTKVEIKRTVAAPSVFIFPPSDEELKSGTASVVCWLNNFYPREAKVQWKVDNALQSGNSEESVTEQDSKDSTYSLSSTLELSKADYEKHKVYACEVTHQGLSSPVTKSFNRGEC
heavy 1: QMQLVQSGAEVKKPGSSVKVSCKASGFNIKDYYLHWVRQAPGKGLEWMGWIDPDQGDTYYAQKFQGRVTITRDRSTSTAYMELRSLRAEDTAVYYCNAAYGESSYPMDYWGQGTLVTVSSASTKGPSVFPLAPSSKSTSGGTAALGCLVKDYFPEPVTVSWNSGALTSGVHTFPAVLKSSGLYSLSSVVTVPSSSLGTQTYICNVNHKPSNTKVDKKVEPKSCDKTHTCPPCPAPELLGGPSVFLFPPKPKDTLMISRTPEVTCVVVDVSHEDPEVKFNWYVDGVEVHNAKTKPREEQYNSTYRVVSVLTVLHQDWLNGKEYKCKVSNKALPAPIEKTISKAKGQPREPQVYVLPPSREEMTKNQVSLLCLVKGFYPSDIAVEWESNGQPENNYLTWPPVLDSDGSFFLYSKLTVDKSRWQQGNVFSCSVMHEALHNHYTQKSLSLSPGK
light 2: QIVLSQSPAILSASPGEKVTMTCRASSSVSYIHWFQQKPGSSPKPWIYATSNLASGVPVRFSGSGSGTSYSLTISRVEAEDAATYYCQQWTSNPPTFGGGTKLEIKRTVAAPSVAIFPPSDERLKSGTASVVCVLNNFYPREAKVQWKVDNALQSGNSQESVTEQDSKDSTYSLSSRLTLSKADYEKHKVYACEVTHQGLSSPVTKSFNRGEC
heavy 2: QVQLQQPGAELVKPGASVKMSCKASGYTFTSYNMHWVKQTPGRGLEWIGAIYPGNGDTSYNQKFKGKATLTADKSSSTAYMQLSSLTSEDSAVYYCARSTYYGGDWYFNVWGAGTTVTVSAASTKGPSVFPLAPSSKSTSGGTAWLGCEVTDYFPEPVTVSWNSGALTSGVHTFPAVLESSGLYSLSSVVTVPSSSLGTQTYICNVNHKPSNTKVDKKVEPKSCDKTHTCPPCPAPELLGGPSVFLFPPKPKDTLMISRTPEVTCVVVDVSHEDPEVKFNWYVDGVEVHNAKTKPREEQYNSTYRVVSVLTVLHQDWLNGKEYKCKVSNKALPAPIEKTISKAKGQPREPQVYVYPPSREEMTKNQVSLTCLVKGFYPSDIAVEWESNGQPENNYKTTPPVLDSDGSFALVSKLTVDKSRWQQGNVFSCSVMHEALHNHYTQKSLSLSPGK
notes: also called CD47xCD20 bispecific; anti-CD47/anti-CD20 IgG1 1+1 heterodimer bispecific antibody
binding result [1]: binds | binding result [2]: binds | fold decrease in affinity relative to the parental anti-CD47 binder [3]: ~350 fold | binding result (human CD20): binds | binding result [4]: binds | binding result [5]: binds | binding result [6]: binds | Kd [7]: 2320 nM | Kd [8]: 0.04 to 1620 nM | binding result (mouse CD47): no binding | Kd [9]: 23000 nM | binding result [10]: binds | EC50 (human CD47 on cells [11]): 1.3 nM | EC50 (human CD47 on cells [12]): 1.64 nM | Kd [13]: 1700 nM | binding result (human CD20 on cells): binds | EC50 of macrophage phagocytosis of OCI-Ly3 cells, OCI-Ly3 Mφ EC50 (µg/mL) REPEAT (human CD47 on cells [14]): 0.27 µg/mL | binding result [15]: binds | Kd [16]: 4510 nM
